Reference: patent US20160347843A1 (UNIVERSITY OF MASSACHUSETTS, published 2016)
Each block holds one binder with its values, some of them ahead of it.

Tests used:
[1] = molecular target: T1, GST-1C (glutathione S-transferase fused upstream of the sFlt1-1-specific C-terminal peptide) (human, not fully specified); assay: ELISA of hybridoma cultures on coated GST-1C
T1 construct: Bacterially expressed screening antigen coated on ELISA plates; not shown: N-terminal glutathione S-transferase (GST) fusion partner
T1 chain: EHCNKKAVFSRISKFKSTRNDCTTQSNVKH
Method: (§1) To determine reactivity of unique antibodies with sFlt1-1 and sFlt1-14, ELISA was employed. As described above, TRX-Exon14 and GST-1C peptides were expressed and purified from bacteria. ELISA plates were coated with either GST-1C (FIG. 2A) or TRX-Exon14 (FIG. 2B), blocked with BSA and a series of dilutions of each hybridoma supernatant containing mAb was incubated on the coated plates. Bound antibody was detected with anti-mouse alkaline phosphatase secondary antibody and the interaction developed with PNPP. Plates were read using a Molecular Devices Emax plate reader and antibodies with the desired specificity and highest affinity were selected for final ELISA production. These included mouse mAbs EX14-1 to detect sFlt1-14 and 1C-KLH-18 to detect sFlt1. […] A human anti sFLT antibody with properties described above (under Quantitative Capture ELISA) was also used to minimize background in the ELISAs.
(§2) To determine reactivity of unique antibodies with sFlt1-1. sFlt1-14, TRX-Exon14 (SEQ ID NO. 40) and GST-1C (SEQ ID NO. 38) isoforms, ELISA plates were coated with either GST-1C or TRX-Exon14, blocked with BSA and a series of dilutions of each hybridoma supernatant containing mAb (or purified mAb) was incubated on the coated plates. Bound antibody was detected with anti-mouse alkaline phosphatase secondary antibody (Jackson ImmunoResearch) and the interaction developed with pNPP. […]

[2] = molecular target: T2, recombinant human sFlt1-1 with C-terminal 6-histidine tag, expressed in CHO cells (human, UniProt P17948 27-656); assay: Octet QK (BLI), mAb captured on anti-murine biosensor, recombinant sFlt in solution
T2 construct: also called sFlt1_v1; sFlt1-i13
T2 sequence (P17948 other isoform, or with tags, fused parts or gaps): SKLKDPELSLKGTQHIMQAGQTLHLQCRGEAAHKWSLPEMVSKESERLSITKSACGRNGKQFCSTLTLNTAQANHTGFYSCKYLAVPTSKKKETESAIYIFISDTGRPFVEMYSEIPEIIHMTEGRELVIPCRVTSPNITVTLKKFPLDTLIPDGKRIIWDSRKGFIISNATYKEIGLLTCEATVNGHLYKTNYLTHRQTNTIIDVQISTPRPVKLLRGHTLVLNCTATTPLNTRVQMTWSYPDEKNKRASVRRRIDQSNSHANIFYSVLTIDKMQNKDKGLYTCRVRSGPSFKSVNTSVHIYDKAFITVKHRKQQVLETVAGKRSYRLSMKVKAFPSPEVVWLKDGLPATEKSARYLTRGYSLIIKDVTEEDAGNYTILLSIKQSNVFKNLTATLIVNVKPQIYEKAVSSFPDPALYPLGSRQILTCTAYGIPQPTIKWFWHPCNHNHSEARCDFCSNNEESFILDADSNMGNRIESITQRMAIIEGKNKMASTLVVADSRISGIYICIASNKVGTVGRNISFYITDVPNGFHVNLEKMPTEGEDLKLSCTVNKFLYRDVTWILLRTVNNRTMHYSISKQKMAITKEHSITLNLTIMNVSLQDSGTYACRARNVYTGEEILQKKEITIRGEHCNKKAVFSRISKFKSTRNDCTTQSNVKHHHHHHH
Method: (§3) Affinity of antibodies was determined using an Octet QK (ForteBio) biomolecular interaction instrument. The Octet QK performs similarly to Biacore in the measurement of antibody affinity. The Octet QK uses biosensors to assess mass increases/decreases and determine rates of association and disassociation. Anti-murine or anti-human biosensors (ForteBio) were used to capture mAb in PBS (5 ug/ml) to saturation and unbound mAb was washed away. The coated biosensors were introduced into a solution containing recombinant human sFlt1-1 or sFlt1-14 at which time Kₒₙ was determined. The sensor was then introduced into a buffer solution and the Koff determined. Using Kₒₙ and Koff an affinity (KD) was calculated.

[3] = molecular target: T3, recombinant human sFlt1-14 with C-terminal 6-histidine tag, expressed in CHO cells (human, UniProt P17948 27-705); assay: western blot, reducing SDS-PAGE, nitrocellulose, probed with 1C-KLH-18, HRP anti-mouse secondary
T3 construct: also called sFlt1_v2; sFlt1-e15a
T3 sequence (P17948 other isoform, or with tags, fused parts or gaps): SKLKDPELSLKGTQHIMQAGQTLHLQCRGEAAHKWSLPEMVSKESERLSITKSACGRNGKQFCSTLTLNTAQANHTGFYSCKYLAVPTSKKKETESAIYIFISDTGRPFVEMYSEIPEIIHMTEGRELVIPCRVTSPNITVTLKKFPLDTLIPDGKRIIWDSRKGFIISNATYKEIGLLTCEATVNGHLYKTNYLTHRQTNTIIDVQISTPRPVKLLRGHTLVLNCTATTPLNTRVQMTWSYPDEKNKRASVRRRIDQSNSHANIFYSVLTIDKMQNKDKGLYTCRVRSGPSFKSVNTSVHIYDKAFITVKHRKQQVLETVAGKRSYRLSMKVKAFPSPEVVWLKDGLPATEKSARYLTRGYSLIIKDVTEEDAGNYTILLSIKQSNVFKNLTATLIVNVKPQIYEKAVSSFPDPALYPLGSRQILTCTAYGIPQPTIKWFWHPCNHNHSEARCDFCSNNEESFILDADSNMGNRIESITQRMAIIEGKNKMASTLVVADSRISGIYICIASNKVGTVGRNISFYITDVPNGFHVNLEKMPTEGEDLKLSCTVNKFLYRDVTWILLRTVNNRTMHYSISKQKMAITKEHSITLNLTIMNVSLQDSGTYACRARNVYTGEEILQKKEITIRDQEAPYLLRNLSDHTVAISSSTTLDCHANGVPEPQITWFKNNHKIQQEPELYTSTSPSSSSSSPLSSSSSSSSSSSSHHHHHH
Method: Specificity of mAbs to sFIt1-14 and SFIt1-1 was investigated by western blot analysis on human amniotic fluid (FIG. 3). […] As standards, human recombinant sFlt1-1 or sFlt1-14 was loaded in final quantities of 200, 100 and 50 ng. After electrophoresis and transfer to nitrocellulose membranes, blots were blocked in 5% BSA and probed with EX14-1 (FIG. 3A), 1C-KLH-18 (FIG. 3B) or a commercially available mouse anti-VEGFR1 mAb (FIG. 3C) that recognized a single protein in amniotic fluid at the expected molecular weight (˜115 kDa) that corresponds to recombinant human sFlt1-14 and sFlt1-1, respectively. After washing, an HRP-labeled anti-mouse secondary antibody was used to detect bound mAb, developed and visualized using a Kodak Gel Logic imaging system. In addition, both mouse mAbs specifically recognized their recombinant sFlt1 isoform standards by western blot.

[4] = molecular target: T4, TRX-Exon14 (thioredoxin with 6-histidine tag fused upstream of the sFlt1-14-specific peptide) (human); assay: ELISA of hybridoma cultures on coated TRX-Exon14
T4 construct: Bacterially expressed screening antigen coated on ELISA plates; not shown: N-terminal thioredoxin (TRX) with 6-histidine tag from pET32a(+)
T4 chain: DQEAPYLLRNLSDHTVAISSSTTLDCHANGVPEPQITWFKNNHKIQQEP
Method: as §1, §2

[5] = molecular target: T2, recombinant human sFlt1-1 with …; assay: capture ELISA (human anti-sFlt capture, mouse mAb detection)
Source text: To measure the concentration of total sFlt and its isoforms, sFlt1-1 and sFlt1-14, in biological fluid, a capture ELISA was developed. Using an anti-sFlt human antibody to capture total sFlt and mouse antibodies 10 ugR#9, EX14-1 or 1C-KLH-18 to detect bound sFlt, allows the efficient capture of sFlt in biological fluid without high background or interference (FIG. 4). […] The sFlt1-specific mAb, 1C-KLH-18, detects recombinant human sFlt1-1, but not sFlt1-14 (FIG. 4A,B). Conversely, the sFlt1-14-specific mAb, EX14-1, detects recombinant human sFlt1-14, but not sFlt1-1 (FIG. 4A,B). In addition, each mAb detects a protein in human amniotic fluid (known from the literature to contain both sFlt isoforms; FIG. 4C) and no background is observed in normal human sera, which should contain very low levels of sFlt isoforms (FIG. 4D).
A capture ELISA format was utilized to quantify the total sFlt, sFlt1-1 or sFlt1-14 concentration in solution. Briefly, high-binding ELISA plates (Costar) were coated with 1 ug/ml of an anti-sFlt human antibody overnight at 4° C. This anti-sFlt antibody was selected to provide a capture reagent that bound both sFlt1-1 and sFlt1-14 at an epitope in their homologous regions without interfering with the availability of the epitopes bound by the antibodies of the present disclosure. […]

[6] = molecular target: T3, recombinant human sFlt1-14 with …; assay: Octet QK (BLI), mAb captured on anti-murine biosensor, recombinant sFlt in solution
Method: as §3

[7] = molecular target: T1, GST-1C (glutathione S-transferase fused …); assay: direct ELISA, plate coated with GST-1C, anti-mouse alkaline phosphatase and pNPP, OD405
Method: as §1, §2

binding result [1]: binds | Kd [2]: 0.0043 µM | binding result [3]: no binding (tested: 200 ng per lane)
B1: mouse mAb 1C-KLH-18 (antibody, V domains shown)
VH: EVQLQQSGAELVRPGASVKLSCTASGVNIKDDYMNWVNQRPEQGLEWIGWIDPENGDTEYASKFQGKATITADTSSNTAYLQLSSLTSEDTAVYYCAAGYDYFPFVYWGQGTLVAVSA
VL: DVLMSQTPLSLPVSLGDQASISCRSSQNIVHSNGNTYLEWYLQKPGQSPKLLIHKVSNRFSGVPDRFSGSGSGTDFTLKISRVEAEDLGVYYCFQGSHVPFTFGSGTKLEKK
notes: Murine hybridoma mAb with a kappa light chain (VK); It was used as hybridoma supernatant or Protein A purified mAb; also called sFlt1-specific mAb; sFlt1-1-specific mAb

binding result [4]: binds | binding result [5]: no binding | Kd [6]: 0.0395 µM | binding result [7]: no binding
B2: mouse mAb EX14-1 (antibody, V domains shown)
VH: QIQLVQSGPELKKPGETVKISCTTSGYIFTTSGMSWVKQAPGKGLQWMGWINTYSGEPTYADDFKGRFAFSLETSASTAYLHINDLKNEDTATYFCARSRNNYEGFAYWGQGTLVTVSV
VL: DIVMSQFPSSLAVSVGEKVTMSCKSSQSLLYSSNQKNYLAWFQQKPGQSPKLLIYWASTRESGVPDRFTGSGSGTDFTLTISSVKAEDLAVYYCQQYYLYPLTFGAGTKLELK
notes: Murine hybridoma mAb with a kappa light chain (VK); also called sFlt1-14-specific mAb
